Measurements from paper PMC9884143 (The Journal of Biological Chemistry, 2023).

How the values were obtained:
[1] = target: SARS-CoV-2 Spike receptor-binding domain (RBD), B.1.1.529 (Omicron) variant (SARS-CoV-2, Omicron B.1.1.529 (BA.1 RBD), strain)
[2] = target: SARS-CoV-2 Spike receptor-binding domain (RBD), Delta variant (SARS-CoV-2, Delta (B.1.617.2; L452R, …, strain)

Row | Binder | Kd [1] | Kd [2]
1 | CoV2-YD-13 (VHH) VHH: QVQLVESGGGLVQAGGSLRLSCAASGFTFDDYAIGWFRQAPGKEREGVSCISSSGGFTNYADSVKGRFTISSDNAKNTVYLQMNSLKPEDTAVYYCAVVVNGYGLDEWAYDYWGQGTQVTVS | 3.64 nM | 45.4 nM
2 | CoV2-YD-11 (VHH) VHH: QVQLVESGGGLVQAGGSLRLSCVVSGTTFSRYDMGWYRQAPGKARETVATISRSGTTNYAYFVKGRFTITRDNAKNTVYLQMNSLKPEDTAVYYCYIFGLDYWGQGTQVTVS | 0.721 nM | 
3 | CoV2-YD-12 (VHH) VHH: QVQLVESGGGLVQAGGSLRLSCAASGSTFSRLNILWWRQAAGKPREWVATSTDGGTRNYAAAVKGRFTISRDNAKNTVYLQMNSLKPEDTAVYYCYTPDYWGQGTQVTVS | 0.416 nM | 
4 | CoV2-YD-35 (VHH) VHH: DVQLVESGGGLVQAGDSLRLSCTASGRTFTTNAMGWFRQAPGKEREFVAAISWSYGTTYYSDPVEGRFTISRSNAKNTVYLQMNSLKPDDTAVYYCTLRSRFNAAAWTTEAAFDYWGQGTQVTVS | 0.465 nM | 0.185 nM
5 | CoV2-YD-37 (VHH) VHH: DVQLVESGGGLVQAGDSLRLSCTASGRTFTTNAMGWFRQAPGKEREFVAAISWNYDTTYYSDPVEGRFTISRSNAKNTVYLQMNSLKPDDTAVYYCTLRSRFNAAAWTTEAAFDYWGQGTQVTVS | 1.56 nM | 2.4 nM
6 | CoV2-YD-36 (VHH) VHH: QVQLVESGGGLVQAGDSLRLSCTASGRTFTTNAMGWFRQAPGKEREFVAAITWSYGTTYYSDPVEGRFTISRSNAKNTVYLQMNSLKPDDTAVYYCTLRSRFNAAAWTTEAAFDYWGQGTQVTVS | 0.263 nM | 0.022 nM
7 | CoV2-YD-38 (VHH) VHH: DVQLVESGGGLVQAGDSLRLSCAASGRTFTTNAMGWFRQAPGKEREFVAAISWNSGTTYYSDPVKGRFTISRDNAKNTVYLQMNSLKPGDTAVYYCTLRSRFNAYAWTTENAFDYWGQGTQVTVS | 2.82 nM | 0.256 nM
8 | Rescue-1 (VHH) VHH: DVQLVESGGGLVQAGDSLRLSCTASGRTFTTNAMGWFRQAPGKEREFVAAITWSYGTTYYSDPVEGRFTISRDNAKNTVYLQMNSLKPEDTAVYYCFYERLAWDTSTYWGQGTQVTVS | 7.02 nM | 14.1 nM
9 | Rescue-3 (VHH) VHH: DVQLVESGGGLVQAGDSLRLSCTASGRTFTTNAMGWFRQAPGKEREFVAAISWNSGTTYYSDPVKGRFTISRDNAKNTVYLQMNSLKPEDTAVYYCFYERLAWDTSTYWGQGTQVTVS | 60.6 nM | 27.1 nM
10 | Rescue-2 (VHH) VHH: DVQLVESGGGLVQAGDSLRLSCTASGRTFTTNAMGWFRQAPGKEREFVAAISWNYDTTYYSDPVEGRFTISRDNAKNTVYLQMNSLKPEDTAVYYCFYERLAWDTSTYWGQGTQVTVS | 27 nM | 11.2 nM
11 | CoV2-YD-5 (VHH) VHH: QVQLVESGGGLVQAGGSLRLSCVASGTTISTYNLLWFRQAPGQQREWVASISSGGDTSYAGSVKGRFTISRDNTENTMYLQMNSLKPEDTAVYYCHGANAAHGMDYWGKGTQVTVS | 0.66 nM | 
12 | CoV2-YD-14 (VHH) VHH: QVQLVESGGGLVQAGGSLRLSCSASGNTFSTYSLSWYRQAPGKQREFVAAISSGGSTSYANSVKGRFSISRDNAKKTMYLQMNSLKPEDTAVYYCYVVTTLMDYWGQGTQVTVS | 0.655 nM | 
